Substrate: N[C@@H](CC(=O)c1ccccc1NC=O)C(=O)O
Assay: purified protein
Assay type: biochemical, Drosophila melanogaster
Conditions: 50 mM potassium phosphate pH 7.4, 22 °C, 0.02–1.00 mM NFK

B1: KFase (kynurenine formamidase) (Drosophila melanogaster) (protein)
chain: MYNPRCKDLDRDYFPSYHTTRFQDQPEPNLAVLEHFVRVTKQHGRELTEKQGITVDHLRYGEGRQLVDVFYSEKTTNQAPLFVFVHGGYWQEMDMSMSCSIVGPLVRRGYRVAVMDYNLCPQVTLEQLMTQFTHFLNWIFDYTEMTKVSSLTFAGHSAGAHLLAQILMRPNVITAQRSKMVWALIFLCGVYDLRELSNLESVNPKNILGLNERNIESVSPMLWEYTDVTVWNSTKIYVVAAEHDSTTFIEQSRHYADVLRKKGYKASFTLFKGYDHFDIIEETAIDDSDVSRFLRNIEIE
Km: 320 ± 60 µM | kcat: 26.4 ± 4.45 s⁻¹

From article PMC3700353
